Data taken from article PMC7472852, “The Phosphatase PP2A Interacts With ArnA and ArnB to Regulate the Oligomeric State and the Stability of the ArnA/B Complex” (Frontiers in Microbiology, 2020).
Blank lines part the entries; values can stand above or below the molecule they belong to.

B1: N-terminally Strep-tagged ArnA (natural protein, S. acidocaldarius, UniProt Q4J9H4 1-206, looked up)
chain: MTWKCNLCGYENDDDALFCIKCGAQKSSEAQQLPQQQPSEPQAQGVVTQQQVVTNPPVQAQVATPQQPAQQPVLPQPEPAQPQPVSSTPAPQQASQPTNRYYIYFIQTPNENLVNKKVLLNFDLFPSVSMGRSPENIVIVPDSEVSRKHAVIYLDNSELYIEDLNSTNGTYVYDGKQFTPIKGKQKIEPNSIIKLGNQTIVRILKE
notes: ArnA of Sulfolobus acidocaldarius; printed molecular mass of Strep-ArnA 26.8 kDa; also called Strep-ArnA; source: E. coli Rosetta (DE3)/pLysS, purified (heat step, streptavidin beads, SEC); not shown: Strep II, N-terminal, kept
B2: C-terminally His-tagged ArnB (natural protein, S. acidocaldarius, UniProt Q4J9H3 1-380, looked up)
chain: MTISVKAELSHKYSFTSPLKGVFRLIIVPEKVSTARGFHYIILLDTSGSMYGVKIETAKQGAMELLSRIPEGNKISFLTFSNNVNILSEYADAPSLVQQIKQIRSGGQTVLYRALERAIEIAKKHDLPGYIILLTDGQPTDVPETDAYEKLNYPEAYKVIAFGIGDDYNERLLKVITDKTAGILYHVEDAKEIAEMLPQSAVTEIGAKNVSIDIVSETQVKLLNYPGPPVKLGAVESVVRVYGEIIIPPNFTGRLATVKISYEDPLSSRINRLEVNFDITRANDVKRFLDGINNDLVNEYRYYELMSKLANQLNSNNLSEATRTVEQMQMIAQQTRRMELIETTRRISESIETTRRIGTVEQTRKISKEITSEVTKKLRS
notes: ArnB of Sulfolobus acidocaldarius; printed molecular mass of ArnB-His 43.6 kDa; also called ArnB-His; source: E. coli Rosetta (DE3)/pLysS, purified (heat step, Ni-NTA, SEC); not shown: His, C-terminal, kept
B3: phosphorylated ArnA/B complex (complex, S. acidocaldarius)
chain 1: B1 chain
chain 2: B2 chain
modifications: phosphorylated in vitro by the kinase ArnC (sites not given) | phosphorylated in vitro by the kinase ArnC (sites not given)
notes: ArnA of Sulfolobus acidocaldarius; ArnB of Sulfolobus acidocaldarius; Same tag uncertainty as m13; ArnB is the chain that is mainly phosphorylated in the complex; also called phosphorylated oligomeric ArnA/B complex; (ArnA/B)2; source: reconstituted ArnA/B complex (E. coli proteins, SEC-isolated) incubated with ArnC, ATP and Mn2+ at 55°C for 30 min

Experiments:
[1] = biological target: His-tagged ArnA (S. acidocaldarius); experiment: mass photometry; Refeyn OneMP, 20-100 nM protein in 50 mM Tris pH 8.0, 150 mM NaCl; SEC fractions of ArnA, ArnB, ArnA/B complex and phosphorylated ArnA/B complex
[2] = biological target: the molecule itself; experiment: SEC; Superdex 200 (16/600), 50 mM Tris pH 8, 150 mM NaCl; equal amounts of ArnA and ArnB mixed and kept on ice for 1 h; fractions on SDS-PAGE; stoichiometry concluded from SEC and mass photometry together
[3] = biological target: B1; experiment: as above; settings: both partners purified
[4] = biological target: the molecule itself; experiment: mass photometry; Refeyn OneMP, 20-100 nM protein in 50 mM Tris pH 8.0, 150 mM NaCl; SEC fractions of ArnA, ArnB, ArnA/B complex and phosphorylated ArnA/B complex

stoichiometry N [1]: 2
Molecule: His-tagged ArnA (natural protein)

Molecule: B1
stoichiometry N [2]: 2

Molecule: B2
stoichiometry N [3]: 1 | stoichiometry N [1]: 1

Molecule: B3
stoichiometry N [4]: 2 ArnA/B heterodimers per complex
